Reference: patent publication US10654896B2, “FoxP3-binding peptides and uses thereof” (FUNDACIÓN PARA LA INVESTIGACIÓN MÉDICA APLICADA, priority 2016, dated 2020)
Where a SMILES comes first, the peptide text is derived from it. Where no end group is shown, it is not given here. [ ]: non-standard residue; d: D form.

How the values were obtained:
human FOXP3 (FOXP3-6His) = target: T1, human FOXP3 (FOXP3-6His) (Homo sapiens, UniProt Q9BZS1); assay: Peptide binding to FOXP3 by surface plasmon resonance (SPR); conditions: peptides 1-20 μM; ratio to p60 (SEQ ID NO: 1)
T1 construct: 6xHis (C); made in house; host or cells: E. coli BL21 (DE3)
T1 sequence (Q9BZS1 1-431): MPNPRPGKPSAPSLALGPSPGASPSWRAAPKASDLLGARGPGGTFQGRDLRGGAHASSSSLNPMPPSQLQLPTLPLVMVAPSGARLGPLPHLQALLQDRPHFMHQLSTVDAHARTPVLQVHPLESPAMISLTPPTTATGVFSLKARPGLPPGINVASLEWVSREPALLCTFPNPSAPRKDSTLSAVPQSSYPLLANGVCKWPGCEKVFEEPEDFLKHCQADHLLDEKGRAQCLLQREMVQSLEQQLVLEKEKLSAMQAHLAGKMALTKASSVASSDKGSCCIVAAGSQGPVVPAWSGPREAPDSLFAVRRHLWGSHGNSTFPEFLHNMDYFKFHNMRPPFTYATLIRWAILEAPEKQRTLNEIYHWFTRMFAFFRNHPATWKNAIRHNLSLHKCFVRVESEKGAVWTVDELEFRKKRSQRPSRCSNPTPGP
From the text: (§1) Plasmid pET20b FOXP3-His was generated to produce the human FOXP3 tagged with 6 histidines at the C terminus of the protein. Briefly, plasmid pDEST15-FOXP3 (provided by Dr. Casal, Madrid, Spain) was used as template to amplify FOXP3 by PCR using the primers Upper FOXP3 Ndel catatgcccaaccccaggc (SEQ ID NO: 55) and Lower FOXP3 […] (SEQ ID NO: 56). The resulting fragment was subcloned in pET20b at Ndel and NotI sites. pET45b His-Runx1 was obtained by PCR of activated human CD4 T cells obtained from healthy volunteers (after the signature of an informed consent) using the primers Upper Runx1 atgcgtatccccgtagatg (SEQ ID NO: 57) and Lower Runx1 […] (SEQ ID NO: 58) and the fragment was cloned in pcDNA3.1. Then, pET45b and pcDNA3.1-Runx1 were digested with BamHI and NotI and ligated to obtain pET45b-Runx1. Plasmids were used to transform BL21 cells (DE3; Novagen, Schwalbach, Germany) for the expression of the recombinant protein. The transformed BL21 cells were grown in LB medium at 37° C. (1 liter of final culture medium) (with ampicilin 0.1 mg/ml). Once the OD of the culture was between 0.5 and 1.0, IPTG (0.4 mM, final concentration) was added. Bacteria were then cultured overnight in agitation and centrifuged for 10 min at 8000 rpm. Cell pellet was then resuspended in 4 ml Tris-HCl 0.1 M and frozen at −80° C. Cell pellet was then thawed and incubated with lisozyme (25 KU) and a protease inhibitor cocktail for 15 min at 30° C. before cell lysis induced with a French-press. The resultant pool was then centrifuged during 20 min at 11.000 rpm). The recombinant protein was purified from the soluble fraction of French-press cell extracts by affinity chromatography (Histrap, Pharmacia) following manufacturer's instructions and using an FPLC platform (AKTA, Pharmacia). Plasmid pDEST15-FOXP3 encoding the fusion protein GST-FOXP3 (GST fused to the isoform A from human FOXP3 gene), was transformed into BL21 cells for the expression of the recombinant protein. GST-FOXP3 protein was purified from the soluble fraction of cell extracts obtained, as described above, by affinity chromatography (GSTrap; Amersham, Piscataway, N.J.) using a fast protein liquid chromatography platform (AKTA; Amersham) following manufacturer's instructions. The eluted proteins were desalted using Hitrap desalting columns (Pharmacia) and analyzed by SDS-PAGE using Coomassie blue (Bio-Safe Coomassie reagent; Bio-Rad, Hercules, Calif.) and by Western blot.
Screening of peptide binding to FOXP3 was performed by surface plasmon resonance (SPR) using ProteOn XPR36 (Bio-Rad, Hercules Calif., USA) optical biosensor. Recombinant protein FOXP3-6His was produced and purified from E. coli as disclosed in previous section and was immobilized covalently onto a GLM sensor chip (176-5012, Bio-Rad) using sulfo-NHS and EDC (Bio-Rad) coupling reagents and the manufacturer's instructions. After protein immobilization, chip surface was treated with ethanolamine to deactivate the excess of reactive esters.
Individual solutions of the peptides to be tested (1-20 μM) were injected by triplicate in running buffer (Phosphate buffered saline, 0.005% (v/v) Tween 20, pH 7.4) at a flow of 30 μl/min. The interspot signal (obtained in the chip surface not immobilized with protein) was used as reference. The results are summarized in Table 6 below as the ratio Peptide of the invention/p60.

[1] = target: T2, FOXP3/FOXP3 homodimerization (Homo sapiens, UniProt Q9BZS1); assay: FOXP3/FOXP3 homodimerization inhibition (Alphascreen); type: biochemical; conditions: for Dimerization inhibition % inhibition (100 μM): peptide 100 μM
T2 construct: made in house; host or cells: E. coli BL21 (DE3)
T2 sequence (Q9BZS1 1-431): T1 sequence (Q9BZS1 1-431)
From the text: as §1
(§2) It has been described that dimerization of FOXP3 is required for its function as a transcriptional regulator. Moreover, interaction between FOXP3 and the transcription factor Runx1, is crucially required for normal hematopoiesis including thymic T-cell development, but also for Treg suppressor activity (Reviewed in Lozano et al, Front Oncol. 2013, 3:294). Both activities are mediated by the intermediate region of Foxp3, which is the area of interaction between P60 and Foxp3. Thus, we studied the effect of P60 and their mutants on the FOXP3/Runx1 heterodimerization, as well as FOXP3/FOXP3 homodimerization by Alphascreen technology according to the manufacturer's instructions (Perkin Elmer, Benelux). AlphaScreen™ is a bead-based technology that is designed to measure the proximity of donor and acceptor beads conjugated to biomolecules of interest.
To measure FOXP3/FOXP3 homodimerization, recombinant Foxp3 was expressed with a Histine tag as disclosed in section (1) above, and captured by Nickel chelate Acceptor beads (Cat. AL108 Perkin Elmer) following manufacturer's instructions. The other version of recombinant FOXP3, expressing a GST tag (prepared as disclosed in section (1) above), was captured by Glutathione Donor beads (Perkin Elmer Cat. 6765300), following manufacturer's instructions. When the two proteins interacted together, the Donor and Acceptor beads come into proximity. Excitation of the Donor beads results in emission of light from the Acceptor beads. […]

[2] = target: T3, FOXP3/Runx1 heterodimerization (Homo sapiens, UniProt Q9BZS1); assay: FOXP3/Runx1 heterodimerization inhibition (Alphascreen); type: biochemical; conditions: for Foxp3-Runx1 Inhibition % inhibition (100 μM): peptide 100 μM
T3 construct: made in house; host or cells: E. coli BL21 (DE3)
T3 sequence (Q9BZS1 1-431): T1 sequence (Q9BZS1 1-431)
From the text: as §1, §2
To measure Foxp3-Runx1 interactions, Foxp3-GST and […] proteins were used.
Recombinant Runx1 expressed in E. Coli with a hexa-histidine tag (obtained as disclosed in section (1) above) was captured by nickel chelate acceptor beads following manufacturer's instructions, whereas the recombinant FOXP3 expressed with a GST tag was captured by glutathione donor beads (Perkin Elmer) following manufacturer's instructions. His-tagged Runx1 (46 nM final concentration) was incubated with 100 nM GST-FOXP3 and the peptides to be tested (added at different concentrations from 1 to 100 μM) for 1 h at room temperature. […]

[3] = system: murine Treg (CD25+ T cells); assay: In vitro Treg suppression assay ([3H]-thymidine, anti-CD3); type: cell-based, BALB/c mice
Protocol: Spleen was harvested from BALB/c mice (Harlan Laboratories) and homogenized with a 1-ml syringe through a 100-μm cell strainer into a 50-ml conical tube and rinsed two times with PBS (Calcium free) to recover all cells. Cell homogenate was centrifuged at 300×g for 10 min and resuspended homogenate in 1 ml ACK Lysis buffer solution per spleen. Gently swirled for 2 min and then the reaction was quenched by adding 12 ml of PBS.
Cells were centrifuged at 300×g for 10 min and purification of CD25− and CD25+ cells was carried out using magnetic beads (Miltenyi, CD25 microbead kit MOUSE, Ref 130-091-072)), following manufacturer's instructions. After labelling the cells, they were purified using Automacs-Pro device following manufacturer's instructions. Negative fraction corresponded to CD25− cells, which was used as effector Tconv cells. Positive fraction corresponded to CD25+ T cells that was used as Treg cells. Flow cytometry using anti-CD25-APC labeled and anti-CD4-FITC labelled antibodies was used to confirm the purity of isolated cells. Foxp3 expression was analyzed using the anti-Foxp3 staining antibody labelled with APC according to manufacturer's instructions (eBioscience). Purified cells were washed, resuspended in culture medium and diluted in T-cell culture medium (RPMI 1640, supplemented with 10% Fetal bovine serum and antibiotics) at a concentration of 2×10^5/ml (for Tregs) and 2×10^6/ml (for Tconv), for the assay (See below)
The first in vitro assays to measure regulatory T-cell (Treg) function were described by two groups over a decade ago. […] With this knowledge, it was shown that CD4+CD25+ T cells could potently suppress the proliferation of activated CD4+CD25− and CD8+ T cells when the populations were cocultured in vitro. The following protocol describes a basic type of in vitro Treg suppression assay where Treg function is measured in the absence of antigen-presenting cells (APCs). In this protocol, activation is mediated by anti-CD3 antibodies and includes only two cell types, the target Tconv and Tregs. In this protocol, the experiment is setup in a 96-well round-bottom plate in a total volume of 200 μl. All reagents are prepared at four times their desired final concentration and added to assay in 50 μl such that the total volume is 200 μl, thus obtaining the desired final concentration of reactives. Purified Tregs and Tconv prepared as described above were diluted and adjusted in T-cell culture medium to 2×10^5/ml and 2×10^6/ml, respectively. In round-bottom 96-well plate, Tregs and Tconv were added in 50 μl of culture media each (RPMI 1640, supplemented with 10% Fetal bovine serum, and antibiotics). Anti-CD3 antibody was added in 50 μl (final concentration will be 2.5 μg/ml) as a stimulus to induce T cell proliferation. 50 μL of each one of the peptides to be tested were added in the corresponding wells at a concentration of 100 μM and those which provided the best results were tested again at lower concentrations to determine the IC50 value. The final volume was 200 μl in all wells. Tconv alone, Tconv plus anti-CD3, Tconv+anti-CD3+ Treg or Tconv+anti-CD3+Treg+peptides were tested by quadruplicate. Tconv plus anti-CD3 with no Treg was used to determine maximum proliferation of Tconv whereas Tconv+anti-CD3+ Treg was used to determine Treg inhibition. Plates were incubated at 37° C., 5% CO2 for 72 h and then pulsed with 0.1 μCi [^3H]-thymidine (in 25 μl of culture medium per well). After 8 h of incubation, cell cultures were harvested with a cell harvester (Perkin Elmer) and using unifilter plates. Plates were then dried at 50° C., and scintillation reagent (25 μl)(Microscint, Perkin Elmer) was added to each well. Counts per minute (cpm) were determined with a direct beta counter (TopCount, Perkin Elmer).
The results of in vitro Treg suppression assays are most commonly reported as cpm when [^3H]-thymidine is incorporated into proliferating cells. […]

CT26 tumor cells = assay: Anti-tumor vaccination experiment (AH1 in IFA), CT26 challenge; type: in vivo, BALB/c; conditions: 10 nanomol/mice i.p. daily during 10 days after AH1/IFA; day 30 after injection of CT26
Protocol: For anti-tumor vaccination experiments, BALB/c animals immunized with 50 nanomol/mice of peptide AH1 emulsified in incomplete Freund adjuvant (IFA) (Casares et al., 2010, supra), were treated intraperitoneally with 10 nanomol/mice of the indicated Treg inhibitory peptide SEQ ID NO: 51 of the invention or with saline daily during 10 days. At day 10, mice were injected s.c. with 10^6 CT26 tumor cells. Tumor size was monitored twice a week with a calliper and it was expressed according to the formula V=(length×width2)/2. Mice were sacrificed when tumor size reached a volume greater than 4 cm^3.

Row | Compound | Binding to Foxp3 Ratio binding Peptide/p60 (fold change) (human FOXP3 (FOXP3-6His)) | Dimerization inhibition % inhibition (100 μM) [1] [%] | Foxp3-Runx1 Inhibition % inhibition (100 μM) [2] [%] | further results
1 | 2 (RDFQSFRKMWPFFAM-NH2; not fully specified (N-terminus)) [compound 2] | 2.4 | – | – | Dimerization inhibition % inhibition (20 μM) ([1]; peptide 20 μM): 80 (20 μM) %
2 | 5 (RAFQSFRKMWPFFAM) [compound 5] | 4.1 | 74.3 | 76.0 | –
3 | 9 (RWFQSFRKMWPFFAM) [compound 9] | 1.4 | – | – | Treg inhibition - % inhibition (100 μM) ([3]; peptide 100 μM): 210.0%
4 | 19 (RDFQAFRKMWPFFAM) [compound 19] | 1.1 | 89.0 | 74.7 | –
5 | 30 (RDFQSFRKMWAFFAM) [compound 30] | 1.1 | 81.3 | 73.9 | –
6 | CSCC[C@H](NC(=O)[C@H](C)NC(=O)[C@H](Cc1ccccc1)NC(=O)[C@H](Cc1ccccc1)NC(=O)[C@@H]1CCCN1C(=O)[C@H](Cc1c[nH]c2ccccc12)NC(=O)[C@H](CCSC)NC(=O)[C@H](CCCCN)NC(=O)[C@H](CCCNC(=N)N)NC(=O)[C@H](Cc1ccccc1)NC(=O)[C@H](CO)NC(=O)[C@H](CCC(N)=O)NC(=O)[C@H](Cc1ccccc1)NC(=O)[C@@H](C)NC(=O)[C@H](CCCNC(=N)N)NC(=O)CNC(C)=O)C(N)=O [compound 14] (Ac-GR[dA]FQSFRKMWPFFAM-NH2; C-terminus assumed) | 3.6 | – | – | inhibition at 20 µM ([1]; read-out: Dimerization inhibition % inhibition (20 μM)): 90%; inhibition at 2.5 µM ([2]; read-out: Foxp3-Runx1 Inhibition % inhibition (2.5 μM)): 80%
7 | Ac-GRAFQAFRKMWAFFAM-NH2 (C-terminus assumed) [compound 45] | 8.0 | – | – | IC50 [3]: 3000 nM
8 | RAFQAFRKMWPFFAM (cyclo(R[dA]FQAFRKMWPFFAM); also: R1 and R2 form a birradical linker which is -C(=O)-) [SEQ ID NO: 51, head-to-tail cyclic peptide] | – | – | – | effect on growth of CT26 colon cancer tumor (CT26 tumor cells): prevents the growth of tumor
